B1: NLV2 TCR alpha chain (CDR3α only) (parent)
chain: AGPMKTSYDKVI
partner: NLVGMVATV
B2: NLV2 TCR alpha chain (CDR3α only) (parent)
chain: AGPMKTSYDKVI
partner: MLVPMVATV

Variants of: B1
Experiment: T-Switch: Jurkat TCRβ−/− cells expressing a CDR3 saturation-mutagenesis library, stained with two peptide-HLA-A*02:01 tetramers (original and novel peptide) plus anti-CD3, FACS-sorted into four gates, gDNA sequenced
Conditions: with HLA-A*02:01 with peptide … (NLV 2-2, the original bait), tetramers 1 µg/mL, 30 min on ice, DP and SW gates expanded about 10 days between rounds ('two to three rounds of selection' in the Methods), gate SP: higher = more of the variant in the gate that binds the original peptide and not the novel one = retained original binding. Fold enrichment of the CDR3 variant in one FACS gate of a two-tetra, unresolved parent, parent is a CDR3 fragment, scale: fold enrichment, numbering: sequential-on-construct, sequence …

Variant	enrichment
[…] (CDR3 as printed); V11T derived by comparing it with the table's wild-type CDR3 AGPMKTSYDKVI	0
[…] (CDR3 as printed); Y8M derived by comparing it with the table's wild-type CDR3 AGPMKTSYDKVI	0
[…] (CDR3 as printed); Y8E derived by comparing it with the table's wild-type CDR3 AGPMKTSYDKVI	0.105
[…] (CDR3 as printed); T6R derived by comparing it with the table's wild-type CDR3 AGPMKTSYDKVI	0
[…] (CDR3 as printed); Y8R derived by comparing it with the table's wild-type CDR3 AGPMKTSYDKVI	0
[…] (CDR3 as printed); V11I derived by comparing it with the table's wild-type CDR3 AGPMKTSYDKVI	5
[…] (CDR3 as printed); Y8T derived by comparing it with the table's wild-type CDR3 AGPMKTSYDKVI	0.942
[…] (CDR3 as printed); Y8N derived by comparing it with the table's wild-type CDR3 AGPMKTSYDKVI	0
[…] (CDR3 as printed); Y8W derived by comparing it with the table's wild-type CDR3 AGPMKTSYDKVI	0
[…] (CDR3 as printed); Y8G derived by comparing it with the table's wild-type CDR3 AGPMKTSYDKVI	0
[…] (CDR3 as printed); Y8F derived by comparing it with the table's wild-type CDR3 AGPMKTSYDKVI	0
[…] (CDR3 as printed); T6Y derived by comparing it with the table's wild-type CDR3 AGPMKTSYDKVI	0
[…] (CDR3 as printed); V11F derived by comparing it with the table's wild-type CDR3 AGPMKTSYDKVI	0
[…] (CDR3 as printed); T6N derived by comparing it with the table's wild-type CDR3 AGPMKTSYDKVI	0
[…] (CDR3 as printed); V11Y derived by comparing it with the table's wild-type CDR3 AGPMKTSYDKVI	0
[…] (CDR3 as printed); V11C derived by comparing it with the table's wild-type CDR3 AGPMKTSYDKVI	0
[…] (CDR3 as printed); V11K derived by comparing it with the table's wild-type CDR3 AGPMKTSYDKVI	0
[…] (CDR3 as printed); T6M derived by comparing it with the table's wild-type CDR3 AGPMKTSYDKVI	0
[…] (CDR3 as printed); V11P derived by comparing it with the table's wild-type CDR3 AGPMKTSYDKVI	0
[…] (CDR3 as printed); V11R derived by comparing it with the table's wild-type CDR3 AGPMKTSYDKVI	0
[…] (CDR3 as printed); V11A derived by comparing it with the table's wild-type CDR3 AGPMKTSYDKVI	1.13
[…] (CDR3 as printed); T6P derived by comparing it with the table's wild-type CDR3 AGPMKTSYDKVI	9.39
[…] (CDR3 as printed); V11N derived by comparing it with the table's wild-type CDR3 AGPMKTSYDKVI	0
[…] (CDR3 as printed); Y8D derived by comparing it with the table's wild-type CDR3 AGPMKTSYDKVI	0

Variant	enrichment
[…] (CDR3 as printed); V11W derived by comparing it with the table's wild-type CDR3 AGPMKTSYDKVI	0
[…] (CDR3 as printed); V11G derived by comparing it with the table's wild-type CDR3 AGPMKTSYDKVI	0
[…] (CDR3 as printed); T6W derived by comparing it with the table's wild-type CDR3 AGPMKTSYDKVI	0
[…] (CDR3 as printed); Y8S derived by comparing it with the table's wild-type CDR3 AGPMKTSYDKVI	0
[…] (CDR3 as printed); V11L derived by comparing it with the table's wild-type CDR3 AGPMKTSYDKVI	0
[…] (CDR3 as printed); T6V derived by comparing it with the table's wild-type CDR3 AGPMKTSYDKVI	22.1
[…] (CDR3 as printed); T6S derived by comparing it with the table's wild-type CDR3 AGPMKTSYDKVI	0
[…] (CDR3 as printed); Y8L derived by comparing it with the table's wild-type CDR3 AGPMKTSYDKVI	0
[…] (CDR3 as printed); Y8V derived by comparing it with the table's wild-type CDR3 AGPMKTSYDKVI	0
[…] (CDR3 as printed); T6L derived by comparing it with the table's wild-type CDR3 AGPMKTSYDKVI	0
[…] (CDR3 as printed); Y8I derived by comparing it with the table's wild-type CDR3 AGPMKTSYDKVI	0
[…] (CDR3 as printed); V11Q derived by comparing it with the table's wild-type CDR3 AGPMKTSYDKVI	0
[…] (CDR3 as printed); Y8P derived by comparing it with the table's wild-type CDR3 AGPMKTSYDKVI	0
[…] (CDR3 as printed); V11H derived by comparing it with the table's wild-type CDR3 AGPMKTSYDKVI	0
[…] (CDR3 as printed); V11M derived by comparing it with the table's wild-type CDR3 AGPMKTSYDKVI	0
[…] (CDR3 as printed); Y8A derived by comparing it with the table's wild-type CDR3 AGPMKTSYDKVI	0
[…] (CDR3 as printed); Y8H derived by comparing it with the table's wild-type CDR3 AGPMKTSYDKVI	0
[…] (CDR3 as printed); Y8K derived by comparing it with the table's wild-type CDR3 AGPMKTSYDKVI	0
[…] (CDR3 as printed); V11D derived by comparing it with the table's wild-type CDR3 AGPMKTSYDKVI	0.11
[…] (CDR3 as printed); Y8C derived by comparing it with the table's wild-type CDR3 AGPMKTSYDKVI	0
[…] (CDR3 as printed); Y8Q derived by comparing it with the table's wild-type CDR3 AGPMKTSYDKVI	0
[…] (CDR3 as printed); V11E derived by comparing it with the table's wild-type CDR3 AGPMKTSYDKVI	0
[…] (CDR3 as printed); T6Q derived by comparing it with the table's wild-type CDR3 AGPMKTSYDKVI	0
[…] (CDR3 as printed); V11S derived by comparing it with the table's wild-type CDR3 AGPMKTSYDKVI	1.91

Variants of: B2
Experiment: as above
Conditions: with HLA-A*02:01 with peptide … (NLV 3-1, the novel peptide), tetramers 1 µg/mL, 30 min on ice, SP, DP and SW gates expanded about 10 days between rounds ('two to three rounds of selection' in the Methods), gate SW: higher = more of the variant in the gate that binds the novel peptide and not the original one = switched binding. Fold enrichment of the CDR3 variant in one FACS gate of a two-tetramer stain, unresolved parent, parent is a CDR3 fragment, scale: fold enrichment, numbering: sequential-on-construct, sequence starts at 1

Variant	enrichment
[…] (CDR3 as printed); K10D derived by comparing it with the table's wild-type CDR3 AGPMKTSYDKVI	0
[…] (CDR3 as printed); K5D derived by comparing it with the table's wild-type CDR3 AGPMKTSYDKVI	0
[…] (CDR3 as printed); D9H derived by comparing it with the table's wild-type CDR3 AGPMKTSYDKVI	0
[…] (CDR3 as printed); G2Y derived by comparing it with the table's wild-type CDR3 AGPMKTSYDKVI	0
[…] (CDR3 as printed); A1P derived by comparing it with the table's wild-type CDR3 AGPMKTSYDKVI	0
[…] (CDR3 as printed); A1T derived by comparing it with the table's wild-type CDR3 AGPMKTSYDKVI	0
[…] (CDR3 as printed); A1R derived by comparing it with the table's wild-type CDR3 AGPMKTSYDKVI	0
[…] (CDR3 as printed); I12M derived by comparing it with the table's wild-type CDR3 AGPMKTSYDKVI	0
[…] (CDR3 as printed); S7G derived by comparing it with the table's wild-type CDR3 AGPMKTSYDKVI	0
[…] (CDR3 as printed); V11S derived by comparing it with the table's wild-type CDR3 AGPMKTSYDKVI	0
[…] (CDR3 as printed); T6N derived by comparing it with the table's wild-type CDR3 AGPMKTSYDKVI	0
[…] (CDR3 as printed); K10S derived by comparing it with the table's wild-type CDR3 AGPMKTSYDKVI	1.59
[…] (CDR3 as printed); S7H derived by comparing it with the table's wild-type CDR3 AGPMKTSYDKVI	0
[…] (CDR3 as printed); K5V derived by comparing it with the table's wild-type CDR3 AGPMKTSYDKVI	0
[…] (CDR3 as printed); A1H derived by comparing it with the table's wild-type CDR3 AGPMKTSYDKVI	0
[…] (CDR3 as printed); Y8E derived by comparing it with the table's wild-type CDR3 AGPMKTSYDKVI	52.6
[…] (CDR3 as printed); K10E derived by comparing it with the table's wild-type CDR3 AGPMKTSYDKVI	0.402
[…] (CDR3 as printed); D9C derived by comparing it with the table's wild-type CDR3 AGPMKTSYDKVI	0
[…] (CDR3 as printed); T6S derived by comparing it with the table's wild-type CDR3 AGPMKTSYDKVI	0
[…] (CDR3 as printed); I12F derived by comparing it with the table's wild-type CDR3 AGPMKTSYDKVI	0
[…] (CDR3 as printed); V11K derived by comparing it with the table's wild-type CDR3 AGPMKTSYDKVI	0
